Experiments:
[1] = target: large (50S) ribosomal subunit from Staphylococcus aureus (S. aureus) (UniProt Q2FW16)
[2] = target: large (50S) ribosomal subunit from Staphylococcus aureus (S. aureus) (UniProt Q2FW16); remark: listed apart in the source

Chain of UniProt Q2FW16 (Q2FW16 whole entry, looked up): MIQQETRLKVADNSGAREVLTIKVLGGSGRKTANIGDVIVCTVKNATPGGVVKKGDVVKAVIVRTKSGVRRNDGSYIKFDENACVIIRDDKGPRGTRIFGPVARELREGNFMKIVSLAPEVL

Row | Substance | Mg2+ concentration at which half of the vacant 70S ribosomes are dissociated into 50S + 30S (sucrose gradient profiles, 2X molar excess of RsfS, 3-5 mM Mg2+) [1] [mM Mg2+] | anti-association activity at 4 mM Mg2+ (relative amount of dissociated 50S + 30S subunits, sucrose gradient profiles) [1] [% activity] | efficiency of translation inhibition in the S. aureus cell-free system at 6 mM Mg2+ (370 mM K+) [2] [%] | loss of anti-association activity at 4 mM Mg2+ (relative amount of dissociated 50S + 30S subunits, sucrose gradient profiles) (% of activity lost) [1]
1 | Ribosomal silencing factor S (RsfS) from Staphylococcus aureus, wild type (natural protein) | 5 | 100 | 80 | 
2 | RsfS E70A mutant from Staphylococcus aureus (natural protein) | 4.4 |  | 70 | 20
3 | RsfS Y98A mutant from Staphylococcus aureus (natural protein) | 3.4 |  | 35 | 80

— publication PMC9503621
